Patent US10435480
Several values for one entry are separate records, joined by “and”; a condition that tells them apart may be missing. Identical values can stand only once.

How the values were obtained:
[1] = target: OMP0 (E. coli) (UniProt P0A910); assay: M2 anti-FLAG-AP 1:1000 and PNPP on OMP0 treated PLA disc
[2] = target: Rabbit anti-mouse IgG-AP conjugate (Sigma Cat. No. A3688) (rabbit); assay: control without mouse IgG: conjugate only (1/5000) on OMP18, hydrophilic plate
[3] = target: Rabbit anti-mouse IgG-AP conjugate (Sigma Cat. No. A3688) (rabbit); assay: control without mouse IgG: conjugate only (1/5000) on OMP18, hydrophobic plate
[4] = target: Mouse IgG (Sigma Cat No. 15381) (mouse); assay: immunoassay, OMP18 adsorbed on hydrophilic plate, mouse IgG 2 ug/mL, anti-mouse IgG-AP and PNPP; well 2
[5] = target: Mouse IgG (Sigma Cat No. 15381) (mouse); assay: immunoassay, OMP18 adsorbed on hydrophilic plate, mouse IgG 2 ug/mL, anti-mouse IgG-AP and PNPP; well 1
[6] = target: Mouse IgG (Sigma Cat No. 15381) (mouse); assay: immunoassay, OMP18 adsorbed on hydrophobic plate, mouse IgG 2 ug/mL, anti-mouse IgG-AP and PNPP; well 1
[7] = target: Mouse IgG (Sigma Cat No. 15381) (mouse); assay: immunoassay, OMP18 adsorbed on hydrophobic plate, mouse IgG 2 ug/mL, anti-mouse IgG-AP and PNPP; well 2

M2 anti-FLAG alkaline phosphatase conjugated antibody (Sigma Cat No. A9469)
Absorbance at 405 nm [1]: 0.312 A405 and 0.361 A405 and 0.374 A405

OMP18 (from UniProt P38507 212-269; P38507 212-269)
A405 [2]: 0.027 A405
A405 [3]: 0.056 A405
A405 [4]: 2.23 A405
A405 [5]: 2.24 A405
A405 [6]: 2.39 A405
A405 [7]: 2.33 A405
